B1: recombinant human MD2 protein (receptor, UniProt Q9Y6Y9 19-160, looked up)
chain: QKQYWVCNSSDASISYTYCDKMQYPISINVNPCIELKRSKGLLHIFYIPRRDLKQLYFNLYITVNTMNLPKRKEVICRGSDDDYSFCRALKGETVNTTISFSFKGIKFSKGKYKCVVEAISGSPEEMLFCLEFVILHQPNSN
notes: also called hMD2; LY96
B4: recombinant TREML1 ECD (human TREM-like transcript-1 extracellular domain) (ligand)
chain: QGIVGSLPEVLQAPVGSSILVQCHYRLQDVKAQKVWCRFLPEGCQPLVSSAVDRRAPAGRRTFLTDLGGGLLQVEMVTLQEEDAGEYGCMVDGARGPQILHRVSLNILPPEEEEETHKIGSLAENAFSDPAGSANPLEPSQDEKSIP
notes: Expressed in E. coli from pET30-TREML1 and purified on Ni-NTA; also called hTREML1; not shown: N-terminal polyhistidine tag from pET30

Assays:
[1] = target: B4; experiment: solid phase binding assay, MD2 coated
Experimental: (§1) To identify potential binding partners of TREML1 ECD, we used solid phase binding assay to assess interactions between TREML1 ECD and candidate proteins. Briefly, various candidate proteins and BSA (as a negative control) were coated on a 96-well plate and TREML1 ECD at various concentrations were added to the wells. After binding and washing, an anti-TREML1 antibody conjugated with horse radish peroxidase (HRP) was added to each well. After washing, HRP substrate, TMB (3,3′,5,5′-tetramethylbenzidine), was added. After reaction, absorbance at 450 nm was measured to assess TREML1 binding. An exemplary set of results is shown in FIG. 2, in which recombinant TREML1 ECD binds MD2 and TLR4 in a concentration-dependent manner.
(§2) To investigate the protein-protein interactions. Recombinant TLR4 (5 ug/ml in PBS), MD2 (5 ug/ml in PBS), CD14 (5 ug/ml in PBS), and BSA (negative control) proteins were plated separately on 96-well plates and incubated overnight at 4 degrees Celsius. The blocking buffer (2% BSA in PBS) was added to avoid the nonspecific binding for 2 hr at room temperature. A serial diluted TREML1 ECD (2.5 ug/ml to 156 ng/ml, 2-fold dilutions) solutions were added and allowed to incubate at room temperature for 2 hr. Then, anti-TREML1 antibody (1 ug/ml in PBS) was added for 1 hr. […] Absorbance at OD450/540 nm was measured with a microplate reader.

[2] = target: B1; experiment: solid phase binding assay, TREML1 stalk coated, anti-His-HRP detection
Experimental: (§3) For TREML1 or mTREML1 stalk binding to human or mouse MD2 protein, TREML1 stalk or mTREML1 stalk (5 ug/ml in PBS) was coated separately on a 96-well plate. Recombinant hTLR4, hMD2, hCD14, or mMD2 was each serially diluted and added to the plates. Anti-His tag antibody-HRP was used as a detection antibody to detect the protein binding.

[3] = target: T1, recombinant TLR4 (toll-like receptor 4) (human, UniProt O00206 24-631, limits assumed); experiment: solid phase binding assay, TREML1 stalk coated at 5 ug/ml, anti-His-HRP detection
T1 construct: also called hTLR4
Experimental: as §3

recombinant CD14 [4] = target: T2, recombinant CD14 (human, UniProt P08571 20-352, limits assumed); experiment: as above
T2 construct: also called hCD14
T2 sequence (looked up): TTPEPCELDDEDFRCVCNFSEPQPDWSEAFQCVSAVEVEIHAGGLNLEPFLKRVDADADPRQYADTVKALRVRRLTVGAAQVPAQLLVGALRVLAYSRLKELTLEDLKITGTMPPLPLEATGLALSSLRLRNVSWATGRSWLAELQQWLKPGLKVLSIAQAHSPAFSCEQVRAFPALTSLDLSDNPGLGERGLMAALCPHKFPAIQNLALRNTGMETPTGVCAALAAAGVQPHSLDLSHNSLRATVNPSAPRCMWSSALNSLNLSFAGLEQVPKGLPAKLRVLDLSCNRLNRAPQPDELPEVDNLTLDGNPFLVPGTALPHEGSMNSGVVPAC
Experimental: as §3

[5] = target: T3, recombinant mouse MD2 protein (mouse, UniProt Q9JHF9 19-160); experiment: solid phase binding assay, mTREML1 stalk coated, anti-His-HRP detection
T3 construct: also called mMD2
T3 sequence (looked up): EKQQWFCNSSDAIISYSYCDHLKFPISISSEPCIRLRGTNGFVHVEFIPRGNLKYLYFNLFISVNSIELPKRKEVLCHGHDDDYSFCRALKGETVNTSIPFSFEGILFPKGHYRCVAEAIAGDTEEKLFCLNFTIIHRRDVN
Experimental: as §3

recombinant CD14 [6] = target: T2, recombinant CD14; experiment: solid phase binding assay, CD14 coated at 5 ug/ml
Experimental: as §1, §2

BSA (negative control) = BSA (negative control) (UniProt P02769 25-607); experiment: solid phase binding assay, BSA coated as negative control
Experimental: as §1, §2

T1 sequence (O00206 24-631 limits assumed): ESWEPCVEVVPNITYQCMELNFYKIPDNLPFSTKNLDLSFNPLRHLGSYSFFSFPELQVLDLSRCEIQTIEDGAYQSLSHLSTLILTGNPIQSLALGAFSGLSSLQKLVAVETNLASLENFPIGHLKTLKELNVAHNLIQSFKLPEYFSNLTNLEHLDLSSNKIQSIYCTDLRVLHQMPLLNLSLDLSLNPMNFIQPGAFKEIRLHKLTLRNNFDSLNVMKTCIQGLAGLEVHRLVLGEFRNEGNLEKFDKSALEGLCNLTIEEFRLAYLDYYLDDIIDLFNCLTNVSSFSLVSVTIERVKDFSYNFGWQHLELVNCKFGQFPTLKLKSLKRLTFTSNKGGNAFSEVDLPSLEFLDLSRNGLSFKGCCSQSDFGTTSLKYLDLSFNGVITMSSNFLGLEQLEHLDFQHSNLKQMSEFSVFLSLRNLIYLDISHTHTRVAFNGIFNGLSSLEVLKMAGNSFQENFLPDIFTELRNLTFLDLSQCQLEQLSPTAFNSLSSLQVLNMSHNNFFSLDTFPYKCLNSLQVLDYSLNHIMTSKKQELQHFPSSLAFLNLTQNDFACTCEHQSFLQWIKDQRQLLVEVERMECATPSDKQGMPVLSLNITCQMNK
Chain of BSA (negative control) (P02769 25-607 limits assumed): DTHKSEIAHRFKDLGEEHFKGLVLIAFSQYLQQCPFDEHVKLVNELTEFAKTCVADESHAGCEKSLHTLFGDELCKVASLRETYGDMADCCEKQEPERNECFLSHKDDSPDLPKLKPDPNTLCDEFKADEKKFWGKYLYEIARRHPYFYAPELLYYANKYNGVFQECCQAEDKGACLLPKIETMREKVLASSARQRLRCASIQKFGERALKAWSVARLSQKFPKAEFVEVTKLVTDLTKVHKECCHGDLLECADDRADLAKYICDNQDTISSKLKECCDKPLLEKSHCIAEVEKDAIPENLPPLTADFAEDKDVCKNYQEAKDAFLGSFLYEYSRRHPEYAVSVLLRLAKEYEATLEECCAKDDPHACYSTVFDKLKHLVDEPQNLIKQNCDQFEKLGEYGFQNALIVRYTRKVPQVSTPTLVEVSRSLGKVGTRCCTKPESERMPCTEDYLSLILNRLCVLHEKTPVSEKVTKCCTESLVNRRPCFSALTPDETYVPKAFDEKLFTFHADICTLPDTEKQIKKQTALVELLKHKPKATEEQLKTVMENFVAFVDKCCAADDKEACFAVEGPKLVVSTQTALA

B1
binding result [1]: binds

B2: TREML1 stalk polypeptide (human) (peptide)
peptide: ILPPEEEEETHKIGSLAENAFSDPAGSANPLEPSQDEKSIP
binding result [2]: binds | binding result [3]: no binding | binding result (recombinant CD14 [4]): no binding

B3: mTREML1 stalk polypeptide (mouse) (peptide)
peptide: EGEEAEDEKETYRIGTGSLLEDPSLDPSASAGPHEFRRRENSIP
notes: also called mouse TREML1 stalk
binding result [5]: binds

B4
binding result (recombinant CD14 [6]): no binding (tested: 2.5 ug/ml to 156 ng/ml TREML1 ECD) | binding result (BSA (negative control)): no binding (tested: 2.5 ug/ml to 156 ng/ml TREML1 ECD)

Source: patent US20230330222A1 (ASCENDO BIOTECHNOLOGY, published 2023)
